Consider 9 substances from paper PMC4215875.

In test [1] the target is FcRn (UniProt P55899). Briefly: SPR. In general terms: In SPR one partner is held on a chip, and binding of the other changes the refractive index at the surface.
Test [2] deals with alpha-HER2 CH1 ADC (UniProt P01857). The following applies: pH 7.3; not stated (pH 7.3).
Test [3] addresses alpha-HER2 LC tag (trastuzumab with light-chain aldehyde tag). The following applies: pH 7.3; not stated (pH 7.3).
The target of test [4] is alpha-HER2 CT tag (trastuzumab with aldehyde Tag G) (UniProt P01857). To be noted: pH 7.3; not stated (pH 7.3).
In test [5] the target is alpha-HER2 LC ADC (UniProt P01857). To be noted: pH 7.3; not stated (pH 7.3).
Test [6] addresses alpha-HER2-DM1 ADC (in-house T-DM1 analogue) none in sequence; heterogeneous lysine conjugation with SMCC-DM1 (DAR 3.4) (UniProt P01857). The following applies: pH 7.3; not stated (pH 7.3).
For test [7], the target named is alpha-HER2 untagged (trastuzumab) (UniProt P01857). The following applies: pH 7.3; not stated (pH 7.3).
In test [8] the target is alpha-HER2 CH1 tag (trastuzumab with aldehyde Tag C) (UniProt P01857). The following applies: pH 7.3; not stated (pH 7.3).
Test [9] addresses alpha-HER2 CT ADC (UniProt P01857). To be noted: pH 7.3; not stated (pH 7.3).

What is called Kd is the constant that tells how readily two partners part at equilibrium. Read a low Kd as tighter binding. “α-HER2 CT ADC (CT-tagged trastuzumab conjugated to HIPS-Glu-PEG2-maytansine) (antibody)”: in test [1], the % Bound after 5 s at pH 7.3 is 12% and the Kd was 4.4 nM.
As to “α-HER2 untagged (trastuzumab) (antibody)”, the Kd in test [1] was found to be 5.2 nM.
In [1], “α-HER2 CH1 tag (trastuzumab with the aldehyde tag in the CH1 domain, Tag C) (antibody)” had a % Bound after 5 s at pH 7.3 of 9.9% and a Kd of 5.2 nM.
The like results for “α-HER2 CT tag (trastuzumab with the aldehyde tag at the heavy chain C-terminus, Tag G) (antibody)” were, in that order, 9.9% and 5.8 nM.
In test [1], “α-HER2 CH1 ADC (CH1-tagged trastuzumab conjugated to HIPS-Glu-PEG2-maytansine) (antibody)” returned an equilibrium dissociation constant (Kd) of 4.8 nM.
Take Neonatal Fc receptor (FcRn): the % Bound after 5 s in test [2] worked out at 9.5 % bound; in test [3], 11 % bound; in test [4], 9.9 % bound; in test [5] it was 10.9 % bound; in [6], 14.9 % bound; in test [7] it was 8.6 % bound. The % Bound after 5 s in test [8] turned out to be 9.9 % bound; in test [9] it was 12 % bound.
On to “α-HER2-DM1 ADC (trastuzumab conjugated through conventional lysine chemistry to SMCC-DM1) (antibody)”, for which, in [1], the % Bound after 5 s at pH 7.3 stood at 14.9% and the Kd was found to be 5 nM.
The matching figures for “α-HER2 LC ADC (LC-tagged trastuzumab conjugated to HIPS-Glu-PEG2-maytansine) (antibody)”: 10.9% and 4.8 nM.
The matching figures for “α-HER2 LC tag (trastuzumab with the aldehyde tag in the light chain) (antibody)”: 11% and 4.7 nM.
